In test [1] the target is α4β7 integrin on human cells (human) (UniProt P13612). The experiment in a line: FACS, human whole blood, 1 mM MnCl2, Basophils.
The target is the same in test [2]. The experiment in a line: FACS, human whole blood, 1 mM MnCl2, Monocytes. Background: In flow cytometry, cells or beads pass a laser one at a time.
The target is the same in test [3]. Put plainly: FACS, human whole blood, 1 mM MnCl2, Eosinophils.
Test [4] has the same target. The experiment in a line: FACS, human whole blood, 1 mM MnCl2, Neutrophils.
For test [5] the target is unchanged. The experiment in a line: FACS, human whole blood, 1 mM MnCl2, CD19+ B cells.
Test [6] shares this target. Put plainly: FACS, human whole blood, 1 mM MnCl2, CD4 naïve T cells.
The target is the same in test [7]. The experiment in a line: FACS, human whole blood, 1 mM MnCl2, CD8 naïve T cells.
The target is the same in test [8]. The experiment in a line: FACS, human whole blood, 1 mM MnCl2, CD4 memory T cells.
Test [9] has the same target. Put plainly: FACS, human whole blood, 1 mM MnCl2, CD8 memory T cells.
The target is the same in test [10]. Put plainly: FACS, human whole blood, 1 mM MnCl2, NK cells CD16+ 56+.
The target in test [11] is soluble α4β7 integrin (Homo sapiens (Human)) (UniProt P13612). The experiment in a line: SPR, antibody on streptavidin chip, soluble α4β7 as analyte.
Test [12] addresses α4β1 (R&D Systems #5668-A4) (UniProt P13612). Put plainly: α4β1-VCAM competition ELISA. (An ELISA detects its analyte on a solid surface through an enzyme-linked reagent.)
Test [13] deals with rh integrin α4β7 (R&D Systems #5397-A30) (human) (UniProt P13612). The experiment in a line: α4β7-MAdCAM competition ELISA.
Test [14] has as its target α4β7 integrin on human cells (human, UniProt P13612 34-1032; P26010 20-798). The experiment in a line: cell-based or functional assay.
In test [15] the target is α4β1 integrin on human cells (human, UniProt P13612 34-1032; P05556 21-798). Put plainly: cell-based or functional assay.
For test [16], the target named is T1, α4β1 (R&D Systems #5668-A4) (UniProt P13612 34-977; P05556 21-728).
T1 construct: bought; also called soluble α4β1
Put plainly: α4β1-VCAM competition ELISA. The method, then: The solution was removed by shaking and then blocked with 250 ul of 1% BSA in 1×PBS per well. The wells were then incubated at room temperature for 1 hr with shaking. Each well was then washed once with wash buffer (50 mM Tris-HCl pH7.6, 100 mM NaCL, 1 mM MnCl2 or MgCl2, 0.05% Tween-20). 25 ul of serial dilutions of peptides starting at 200 μM in assay buffer (Assay buffer: 50 mM Tris-HCl pH7.6, 100 mM NaCl, 1 mM MnCl2 or MgCl2, 0.05% Tween-20) was added to each well. Additionally, 25 ul of α4β1 (R&D Systems #5668-A4) was added to each well at a fixed concentration of 120 nM. The final peptide and α4β1 concentrations were 100 μM and 60 nM, respectively. The plates were then incubated at 37° C. for 2 hr. The solution was then removed by shaking, and each well was washed three times with wash buffer. 50 ul of 9F10 antibody at 4 ug/ml (purified mouse anti-human CD49d, BD Bioscience Cat#555502) was then added to each well, and the plate was incubated at room temperature for 1 hr with shaking. The solution was again removed by shaking, and each well was washed three times with wash buffer. 50 ul of peroxidase-conjugated AffiniPure Goat anti-mouse IgG (Jackson immune research cat #115-035-003) diluted in 1:5000 in assay buffer was added to each well. The plate was incubated at room temperature for 30 min with shaking. […] The reaction was stepped with 2N H₂SO₄ and absorbance was read at 450 nm.

The values below come from patent publication US20160159862A1 (PROTAGONIST THERAPEUTICS, published 2016).

Bridge positions count the residues as written; N and C are the ends. Square brackets hold non-standard residues; d marks the D form. Phe(4-COOH) = N[C@@H](Cc1ccc(C(=O)O)cc1)C(=O)O; 2Nal = N[C@@H](Cc1ccc2ccccc2c1)C(=O)O; NMeR = CN[C@@H](CCCNC(=N)N)C(=O)O; Pen = CC(C)(S)[C@H](N)C(=O)O

B1: biotin-labeled vedolizumab (antibody, INN chains, looked up, V domains shown)
VH: QVQLVQSGAEVKKPGASVKVSCKGSGYTFTSYWMHWVRQAPGQRLEWIGEIDPSESNTNYNQKFKGRVTLTVDISASTAYMELSSLRSEDTAVYYCARGGYDGWDYAIDYWGQGTLVTVSS
VL: DVVMTQSPLSLPVTPGEPASISCRSSQSLAKSYGNTYLSWYLQKPGQSPQLLIYGISNRFSGVPDRFSGSGSGTDFTLKISRVEAEDVGVYYCLQGTHQPYTFGQGTKVEIKR
modifications: biotin label
By Kd is commonly meant the concentration at which binding is half-saturated. A high value points to lower affinity. The koff is a measure of how fast the partners let go of each other. Read a low koff as a long-lived complex. As usually defined, the kon is the rate constant with which the complex forms. A low value points to slower complex formation. Turning to B1, the Percent positive staining was 86% in [1]; 7% in test [2]; 91% in [3]; 0.45% in test [4]; 85% in [5]; 55% in [6]. Besides, the Percent positive staining in test [7] is 53%; in test [8], 22%; in test [9], 36%; in [10], 42%. The molecule further registered a Half-life for dissociation in test [11] of 43 min. In addition, in test [11], the Kd is 59.5 nM. Also, the koff in [11] came to 0.000266 s⁻¹. This molecule also yielded a kon in test [11] of 4470 M⁻¹ s⁻¹.
As usually defined, the IC50 is the midpoint of a concentration-inhibition curve. For the molecule Ac-[Pen][NMeR]SDTL[Pen][2Nal][dE][dK]-NH2 (disulfide 1-7 (inferred); also: homodimer via DIG linker) [SEQ ID NO 33], the IC50 in test [12] is more than 100 nM; in [13] it was less than 10 nM. The “α4β7 cell (Hu) IC50” value in test [14] was more than 10 nM. For the same molecule, the “α4β1 cell IC50” value in test [15] was more than 100000 nM.

B2: SEQ ID NO 129 (peptide)
peptide: Ac-[Pen][NMeR]SDTL[Pen][Phe(4-COOH)]E[dK]-NH2
modifications: disulfide 1-7; not fully specified (residue 10); printed as (Ac-Pen-(N-Me-R)-S-D-T-L-Pen-F(4-COOH)-E-k-NH2)2-DIG; also: homodimer of two subunits joined by DIG linker
B2: the IC50 in [16] was more than 100 nM.
